# US20090061443
# T1: Flag-CALM-AF10 fusion protein (wild-type), Q13492
# T1 chain: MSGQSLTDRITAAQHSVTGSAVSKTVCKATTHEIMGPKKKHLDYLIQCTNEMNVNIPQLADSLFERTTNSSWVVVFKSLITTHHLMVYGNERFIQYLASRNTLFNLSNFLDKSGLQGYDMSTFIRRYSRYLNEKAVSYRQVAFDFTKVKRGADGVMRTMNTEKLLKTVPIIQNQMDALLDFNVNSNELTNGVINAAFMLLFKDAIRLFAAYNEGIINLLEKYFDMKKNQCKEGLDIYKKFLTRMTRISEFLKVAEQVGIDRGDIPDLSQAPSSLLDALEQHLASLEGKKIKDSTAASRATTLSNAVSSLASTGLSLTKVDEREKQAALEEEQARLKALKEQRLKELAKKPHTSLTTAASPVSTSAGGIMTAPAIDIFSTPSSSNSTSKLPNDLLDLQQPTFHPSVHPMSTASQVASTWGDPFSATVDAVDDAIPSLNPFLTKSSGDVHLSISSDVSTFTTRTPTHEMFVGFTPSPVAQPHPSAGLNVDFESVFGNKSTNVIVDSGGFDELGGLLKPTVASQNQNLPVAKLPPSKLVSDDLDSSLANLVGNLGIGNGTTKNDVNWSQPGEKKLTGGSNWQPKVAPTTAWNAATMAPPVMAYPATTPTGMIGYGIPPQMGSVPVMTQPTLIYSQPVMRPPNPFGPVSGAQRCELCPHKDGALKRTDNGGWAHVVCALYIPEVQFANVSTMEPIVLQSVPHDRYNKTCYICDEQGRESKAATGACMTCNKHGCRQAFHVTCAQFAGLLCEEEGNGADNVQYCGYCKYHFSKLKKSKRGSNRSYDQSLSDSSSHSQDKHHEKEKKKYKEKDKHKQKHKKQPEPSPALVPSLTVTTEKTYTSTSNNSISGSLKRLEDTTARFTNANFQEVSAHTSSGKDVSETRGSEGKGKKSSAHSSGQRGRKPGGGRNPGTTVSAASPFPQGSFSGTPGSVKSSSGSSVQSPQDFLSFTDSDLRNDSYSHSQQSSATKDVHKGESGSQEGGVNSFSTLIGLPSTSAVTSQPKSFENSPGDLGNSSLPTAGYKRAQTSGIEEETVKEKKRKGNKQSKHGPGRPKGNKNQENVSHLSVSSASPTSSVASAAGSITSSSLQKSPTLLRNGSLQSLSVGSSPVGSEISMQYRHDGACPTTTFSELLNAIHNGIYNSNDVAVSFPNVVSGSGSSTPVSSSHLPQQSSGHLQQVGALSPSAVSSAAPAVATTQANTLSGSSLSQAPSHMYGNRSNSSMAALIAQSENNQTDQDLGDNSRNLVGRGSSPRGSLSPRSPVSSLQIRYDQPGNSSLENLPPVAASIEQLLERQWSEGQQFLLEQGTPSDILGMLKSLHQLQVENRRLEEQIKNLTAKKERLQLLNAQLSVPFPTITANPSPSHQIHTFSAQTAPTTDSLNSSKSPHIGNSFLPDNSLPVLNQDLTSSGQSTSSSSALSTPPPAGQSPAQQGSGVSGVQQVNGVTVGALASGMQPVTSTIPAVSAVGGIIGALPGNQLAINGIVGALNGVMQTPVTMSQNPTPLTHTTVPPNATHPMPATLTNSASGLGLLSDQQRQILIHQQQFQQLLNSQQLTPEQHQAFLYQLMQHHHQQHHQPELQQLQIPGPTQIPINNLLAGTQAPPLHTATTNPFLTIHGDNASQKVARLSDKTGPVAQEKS
# B1: hDOT1L (human DOT1-like protein) (protein)
# chain: MGEKLELRLKSPVGAEPAVYPWPLPVYDKHHDAAHEIIETIRWVCEEIPDLKLAMENYVLIDYDTKSFESMQRLCDKYNRAIDSIHQLWKGTTQPMKLNTRPSTGLLRHILQQVYNHSVTDPEKLNNYEPFSPEVYGETSFDLVAQMIDEIKMTDDDLFVDLGSGVGQVVLQVAAATNCKHHYGVEKADIPAKYAETMDREFRKWMKWYGKKHAEYTLERGDFLSEEWRERIANTSVIFVNNFAFGPEVDHQLKERFANMKEGGRIVSSKPFAPLNFRINSRNLSDIGTIMRVVELSPLKGSVSWTGKPVSYYLHTIDRTILENYFSSLKNPKLREEQEAARRRQQRESKSNAATPTKGPEGKVAGPADAPMDSGAEEEKAGAATVKKPSPSKARKKKLNKKGRKMAGRKRGRPKKMNTANPERKPKKNQTALDALHAQTVSQTAASSPQDAYRSPHSPFYQLPPSVQRHSPNPLLVAPTPPALQKLLESFKIQYLQFLAYTKTPQYKASLQELLGQEKEKNAQLLGAAQQLLSHCQAQKEEIRRLFQQKLDELGVKALTYNDLIQAQKEISAHNQQLREQSEQLEQDNRALRGQSLQLLKARCEELQLDWATLSLEKLLKEKQALKSQISEKQRHCLELQISIVELEKSQRQQELLQLKSCVPPDDALSLHLRGKGALGRELEPDASRLHLELDCTKFSLPHLSSMSPELSMNGQAAGYELCGVLSRPSSKQNTPQYLASPLDQEVVPCTPSHVGRPRLEKLSGLAAPDYTRLSPAKIVLRRHLSQDHTVPGRPAASELHSRAEHTKENGLPYQSPSVPGSMKLSPQDPRPLSPGALQLAGEKSSEKGLRERAYGSSGELITSLPISIPLSTVQPNKLPVSIPLASVVLPSRAERARSTPSPVLQPRDPSSTLEKQIGANAHGAGSRSLALAPAGFSYAGSVAISGALAGSPASLTPGAEPATLDESSSSGSLFATVGSRSSTPQHPLLLAQPRNSLPASPAHQLSSSPRLGGAAQGPLPEASKGDLPSDSGFSDPESEAKRRIVFTITTGAGSAKQSPSSKHSPLTASARGDCVPSHGQDSRRRGRRKRASAGTPSLSAGVSPKRRALPSVAGLFTQPSGSPLNLNSMVSNINQPLEITAISSPETSLKSSPVPYQDHDQPPVLKKERPLSQTNGAHYSPLTSDEEPGSEDEPSSARIERKIATISLESKSPPKTLENGGGLAGRKPAPAGEPVNSSKWKSTFSPISDIGLAKSADSPLQASSALSQNSLFTFRPALEEPSADAKLAAHPRKGFPGSLSGADGLSPGTNPANGCTFGGGLAADLSLHSFSDGASLPHKGPEAAGLSSPLSFPSQRGKEGSDANPFLSKRQLDGLAGLKGEGSRGKEAGEGGLPLCGPTDKTPLLSGKAAKARDREVDLKNGHNLFISAAAVPPGSLLSGPGLAPAASSAGGAASSAQTHRSFLGPFPPGPQFALGPMSLQANLGSVAGSSVLQSLFSSVPAAAGLVHVSSAATRLTNSHAMGSFSGVAGGTVGGN
# Molecular target: T1, Flag-CALM-AF10 fusion protein …
protein,measurement,value
B1,confocal microscopy of co-expressed hDOT1L and CALM-AF10,High resolution analysis of the proteins indicates that they colocalize in the nucleus
